{"source": "patent US20190241670A1", "about": "(BIOCON, published 2019)", "binders": {"B1": {"name": "humanized IgG1 isotype anti-CD6 monoclonal antibody (T1h) (antibody, V domains shown)", "VH": "EVQLVESGGGLVKPGGSLKLSCAASGFKFSRYAMSWVRQAPGKRLEWVATISSGGSYIYYPDSVKGRFTISRDNVKNTLYLQMSSLRSEDTAMYYCARRDYDLDYFDSWGQGTLVTVSS", "VL": "DIQMTQSPSSLSASVGDRVTITCKASRDIRSYLTWYQQKPGKAPKTLIYYATSLADGVPSRFSGSGSGQDYSLTISSLESDDTATYYCLQHGESPFTLGSGTKLEIK", "notes": "also called humanized IOR-T1; Itolizumab"}}, "target": "T1, rhCD6FC/Chimera (R and D systems) (human, UniProt P30203 25-398)", "T1 construct": "Bought reagent (R and D systems), coated on the ELISA plate; also called CD6 receptor; Fc part of the bought chimera not given", "T1 sequence (looked up)": "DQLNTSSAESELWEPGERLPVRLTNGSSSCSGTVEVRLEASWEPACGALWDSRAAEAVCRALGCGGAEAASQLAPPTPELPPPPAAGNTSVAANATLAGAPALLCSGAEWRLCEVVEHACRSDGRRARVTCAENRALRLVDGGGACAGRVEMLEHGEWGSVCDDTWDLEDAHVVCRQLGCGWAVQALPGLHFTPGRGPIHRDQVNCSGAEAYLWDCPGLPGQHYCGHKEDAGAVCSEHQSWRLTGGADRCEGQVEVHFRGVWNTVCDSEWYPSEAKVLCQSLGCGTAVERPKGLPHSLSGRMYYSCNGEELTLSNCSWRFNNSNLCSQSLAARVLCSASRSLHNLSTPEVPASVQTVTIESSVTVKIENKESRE", "experiment": "ELISA, CD6-Fc coated plate, fixed T1h with varying ALCAM-Fc as competitor", "description": "When varying concentrations of ALCAM-Fc was incubated along with a fixed concentration of T1h in a CD6-Fc coated ELISA plate, T1h was detected at all concentration of ALCAM-Fc.\nThe rhCD6FC/Chimera (R and D systems) (100 ≈g/ml) was diluted in coating buffer and 100 ≈l was added to each well of a 96 well Nunc-Maxisorp plate. The plate was then incubated at 4éC overnight. The Plate was washed thrice with PBS Tween 20. Subsequently, 200 ≈l of blocking solution (2% BSA+0.1% Tween 20 in 1×PBS) was added and incubated for 1 hour at 37éC. After incubation, the plate was washed again with PBS Tween thrice, followed by the addition of T1h monoclonal antibody (0.2 mg/ml) and .rhA LCAMFc (R and D systems) at varying concentrations. This was then incubated for an hour at 37éC. The plate was washed 3 times subsequently with PBS Tween. To the wells 200 ≈l of anti human IgG (Fab)₂ ALP (1:20000) diluted in blocking buffer was added and incubated for 1 hour at 37éC. The plate was washed thrice with PBS tween and 200 ≈l of p-Nitrophenyl Phosphate (PNPP) substrate is added to each well and incubated at 37éC till color develops around 15 minutes. Reading was taken at 405 nm using a BIOTEK Micro Plate Reader."}
{"binder": "B1", "values": [{"measurement": "binding result", "value": "binds"}]}
